Assay [1] concerns the target SARS-CoV-2 wild type spike protein (on reporter virus particles) (SARS-CoV-2) (UniProt P0DTC2). Kind of assay: cell-based or functional assay.
Assay [2] has the same target. Kind of assay: cell-based or functional assay. This is another data set of the same source.
Assay [3] addresses SARS-CoV-2 WT RBD (SARS-CoV-2) (UniProt P0DTC2). Put plainly: Octet BLI single point, monovalent.
The target in assay [4] is Bat coronavirus WIV16 spike protein (Bat coronavirus WIV16). Kind of assay: cell-based or functional assay.
Assay [5] concerns the target SARS-CoV-1 spike protein (SARS-CoV-1) (UniProt P59594). Put plainly: cell-based or functional assay.

Where two headings read alike, the source gives them in different places.

In assay [1], RGN10933 (antibody) registered a PsV neutralization IC50 of 0.002 µg/mL and a PsV neutralization IC90 of 0.024 µg/mL. In assay [2], the PSV IC50 was determined as 0.028 µg/mL, the PsV neutralization IC50 worked out at 0.0067 µg/mL, the PsV neutralization IC90 was found to be 0.081 µg/mL and the SARS2 IC50 came out at 0.022 nM. Also, the WT PsV IC50 in assay [2] is 0.185 nM. Further, the Kd in assay [3] stood at 3.62 nM.
In assay [1], RGN10987 (antibody) gave a PsV neutralization IC50 of 0.007 µg/mL and a PsV neutralization IC90 of 0.078 µg/mL. In addition, in assay [2], the PSV IC50 is 0.031 µg/mL and the WT PsV IC50 was determined as 0.292 nM. In assay [3], this substance displayed a Kd of 9.13 nM.
Turning to S309 (antibody), the figures for the PsV neutralization IC50 in assay [4], in assay [5] and in assay [1] were 0.016 µg/mL, 0.01 µg/mL and 0.009 µg/mL, respectively. The PsV neutralization IC90 is 0.305 µg/mL in assay [4], 0.043 µg/mL in assay [5] and 0.051 µg/mL in assay [1]. This substance also returned a WT PsV IC50 in assay [2] of 6.56 nM.

One may read the Kd as the concentration at which binding is half-saturated. A low value points to higher affinity.

The record behind these values is US20260217797A1.
